Experimental data published in the DeepSol protein solubility set.

Assay: soluble on expression in E. coli; label from the status in PepcDB or PDB records

Question: Which “soluble on expression in E. coli” value does the source give for “MGSDKIHHHHHHVPQRTSFNGSTRPAWKNTTALIRNPKIASILATGGTGMVHAALQSGNPSMGVGAGNGAVYIDHTAFLDRAVEDILLSKRFDNSMVCATENSAVVEAPIYDKWLQMIQDKGAYLVPKKDYQKLADFVFNDKRGVNGPVAGMSARWICEHAGVTLSEGKDVLLFELDPKNIGEKLSSEKLSPLLSVYKAKDREDGIRIVKALLDYQGAGHNAAIQIGSQNDPFIDEYGKAVQASRVLVNQPDALGGIGDIYSDGLRPSLILGTGSWGKNSLSHNLSTSDLLNIKTIAKQRNRPQWIRLPEKIFTKKTSLPIFQMKMSRKSAGPLSSLTRAWSSSTSLTRSMNSWL” here?
Answer: Its value is “not soluble”.

Question: Which “soluble on expression in E. coli” value does the source give for “MKISIENIGKIKSTSILLDGFTVIAGENDSGKSTVGKIVYSIIQAFSIYPQFRKEKIRRKTSHSLRFFITELRRNFDLTKHDSLRQMMSFSFVNHIMADPDDALYEIRGVLDKLEESYPEKLETLIKLKSRLYGIQREIDSLSESDDIFESITDLMQSEFGGEIDRKQDSRPPSFEINDGETTVISAKFSDGIITDGIYSGGLGLGLGDATYIDGASILQYAHLINLNDSDPRLPFHITDLARKLISPTLVRGGSSNLADIYKGRLVFDETQNSFYFDKGGYRVCLNNIASGIKNIGVLDLLVKKGVICDGSLLVLDEPEINLHPKWQTQLAKIICELHQAGVYILLTTHSPYMIEALHYYANVSGIKSNFYLACKSIANPDDVDFIDLSMNVGAIIEDLAQPLWDIVEDNNEFLEHHHHHH” here?
Answer: The value was “soluble”.

Question: For “MGSDKIHHHHHHMSDVYIFCLSMGSPTLNTRVLTNSMELKVGCCGFPVSMKRYFETFDVVEVQKTFYKPPEVKTAEKWRKSAPEDFEFTIKAWQVITHPPSSPTYKKAGIKFENCGFFRPTEVVFMAWEETKKIAKALKAEIIVFQTPKSFRDTAENMENMRAFFSSIDGSFTFCFEPRGWSEESVRAICEELDLVHVVDPFVSKQLYGEICYYRLHGFDYKHKYTDDELEKLLGIVDRDGYVMFNNVHMFDDALRFKKLVEREAKSK”, which “soluble on expression in E. coli” value is on record?
Answer: The value was “not soluble”.

Question: With “MSEQSICQARASVMVYDDTSKKWVPIKPGQQGFSRINIYHNTASSTFRVVGVKLQDQQVVINYSIVKGLKYNQATPTFHQWRDARQVYGLNFASKEEATTFSNAMLFALNIMNSQEGGPSTQRQVQNGPS” as the sequence, how does the “soluble on expression in E. coli” value read?
Answer: The value was “soluble”.

Question: For “MNFSIRVILLLTGFVSLAFSAPKFLTISDIHYGAENIAKDGQDTGKEFLDVTFKRFEELSQNVDFILHLGDLPTHSLFSIPKKEEYEQVVFHGLHEANPGQKPMFYITGNNDSLLGNYQPFSSDNKSPLNLALDWDGACAYCDGLIIDDTHMRKDGYYSSYVIPNNKEIILIALNSVQWTKTPVFLPKYPNQQRDAFVQLFWLEQQLKNHRAKQLLLAMHVPPGTAYNGNRFWHDIYLDRFLTLLDKYHQSYDQITILFSHSHMEEFRKIRLSDGSTIYAFSTPGISRAHHNNPGMKIFDLDKQMRVRNSTTYYTSDLYEWGNEYYQAMNTPDAIFPNCQNKTIPQCLDTLSPEQVCNNLEVGLFYGVKSTRVPYQGCIKTYQINLEHHHHHH”, which “soluble on expression in E. coli” value is on record?
Answer: The value was “not soluble”.

Question: Which “soluble on expression in E. coli” value does the source give for “MGSDKIHHHHHHMTSSSRIAVRELPLFPLPEVVLFPTRPLPLHIFEFRYRIMMNTILESDRRFGVLMVDPVKGTIANVGCCAEIIHYQRLPDDRMKMLTLGQQRFRVLEYVREKPYRVGLVEWLEDHPPAKDLRPLATDVEQLLRDVVRLSAKITEQNIEIPEELPDLPTELSYWVASNLYGVAGEQQSLLEMQDTAARLEREAEILTTTRNHLAARSVLKDTFNPKL” here?
Answer: The value was “not soluble”.

Question: With “PTSAPQHLTVEDVTDTTTTLKWRPPDRIGAGGIDGYLVEYCLEGSEEWVPANKEPVERCGFTVKDLPTGARILFRVVGVNIAGRSEPATLLQPVTIRE” as the sequence, how does the “soluble on expression in E. coli” value read?
Answer: Its value is “soluble”.

Question: Which “soluble on expression in E. coli” value does the source give for “MCMASKVLNKVMGIIGLNDEDFDEYEDEVMEEKAIARENSYDYDEKLNDKNSSNSNNKVVNIHTASSVKVVIVKPKDYDEATQIDDLKNRKIVVVNVTDLEPKTAQRLLDFMGGASYVLNGELLEIDKGVYLLSPSNVDISRDLKNDLASKSIFNWSKLEHHHHHH” here?
Answer: Its value is “not soluble”.

Question: Which “soluble on expression in E. coli” value does the source give for “MGSDKIHHHHHHMAFIQPDLQFNPDTLDNLVIGIAADMGEHDSGAHHHSKAQLLYASAGCMRFYLADTQVVLPPTRAAWLPAGVVHHVTMRNVAAYRSLYFEPETVASLPSRVTIFHVNPLLKALIDTMSFWPWDKPRQSQHNAFSLLCEELENATAENLVLPLPQDKRLKTWLKQLQQKKQPANLKKMAIEIGASERTISRIFNAQTGMAYQAWRQQWRLLSAIEQLAAGASVAQVGFNLQFSSDSAFISFFKQYTGTTPAQYFKSPSV” here?
Answer: The value was “not soluble”.

Question: With “MLLKALCIINALIIGIINADILSDPNYRIFRDISAIRQVVTLARPVKNVSTTELPTYYETNYNISRRVKRQACASSCAPLEKATTPAYEGLIATENFYITYSTDGSGCPIADLTCVGGDMATLDYLDQNGDIITLGDGGDDYNILEAQLKCFAFGWGAATATEVIDGNSLNCNVLTDIPVTTTTSTTSSTTTTTATSTTESTSTSTDSTTTESTTESTTESTSTSTDSTTTESTTESTTESTSTSTDSTTTESTSTSTDSTTTESTTESTTESTSTSTDSTTTSLPALPLILLQPSLPQNQLRSLPAHPLNLLQPSLPQNQLRSLPALPLILLQPSRQALPLILLQPSLPQNQLRSLPAHPRILPRPSLPALPLILLQPSLPQNQLRSLLAHPLILPRLSQQQNQLRSLPAHPPILLQPSLPQNQLRSLPALPLILLQPSLPLNQLRSLPAHPLILLQPSQQQNQLRSLPAHPLILPRPSLPLNQLRSLPAHPLILLQPSLPQNQLRSQPAHPLILPRLSQQAHPLIPPRPSRRALRLILPQLKLLLLRLTLQRQCQELHAVHLEVSGVNGLLTLLALQHVDLVHNKSTDVFALLKLIVEHARMGADVKIQNCNVGVCYFPLDSCCAGYTATVSGTLHICGPQPTTTTPAPNDETCCPLDGIWGAWGEWSVCTGTTCGNCGGSRTRTRVCASDSFCSCNGDTTESENCRLLSSWSEWTTTGTCNQTACGTCQTLTYTRTCLKTNGCFCMGSATKTDYCSRKPCATGTACCNSLTAQTVDGVSICGPVEAAEDETDPVPCTTTTPACCVLGGVWSEWSSGDACNDTCGNCGVTTLSRVCLSQDYNCACSGSTTKQSECAPAPCPFPRTSCCGARKKVIVGRTFECSSADDSDAAPSTLCAVDCCPAAGGYWSEWTTGGSCPTTCGSCSTVTQKRVCMSPSTCPCQGVSSRSVNCGITVCYFPDDSCCAGYSATVSGTQHICGPQPNYTTPYAPYDPTCTDNCCPETGIWSDWTSTPNQCRDYCGSCGNQTRTRTCTSDADGCPCQGPTTITEPCGTGVCYFPRLSCCPGYTATVEGNQHICGPLTTAVADPDKLNTCGVSCCPSAGIWGEWVSVSGCNDTCGSCGQETRKRKCLSLQYGCACTGNATDTSVCASSVCLFPRTSCCTGFKKMVNITGRTFYCGPLPVVPAFNPEQTTCCDPEKTGLWNDWGAWTTCSATCGGCGTQTRSRTCASAPYGCPCTGDLTETQSCAKQVCTTGAQCCAGKFVATGYDGAQYCQDNTPEVCTGTWTEWATLEGAVCNDTCGNCGIIPTSRYCFPSGCQCSGAYTGTQACANSVCLFPRTSCCAPYKKKIVGKTFACA” as the sequence, how does the “soluble on expression in E. coli” value read?
Answer: Its value is “not soluble”.

Question: Which “soluble on expression in E. coli” value does the source give for “MISVVIPAKDEVGNIGPLMKEICQALQGVTEFEILVVDDGSQDDTFGEVIHTAELMLCNAKAIRHERSTGQSTAISTGVLHARGQYIVTLDADGQNDPADIPAMLAQLPQIHAEHFCIAGYRKNRKDTAWKRFQSRFANKVRDALLHDGVPDTGCGLKLFPRETFLRMPYFDHMHRYIPALVRRMGGEVFISVVNHRDRQLGVSKYTAWNRVWVGIVDIMGVIWLGRRAKIAKVARSETRWHDLEHHHHHH” here?
Answer: Its value is “soluble”.

Question: Which “soluble on expression in E. coli” value does the source give for “MNYATTPTAFVESKLNSMPGDALGYLRRLDQRWQALCQGDLPPIAEVAQKVNTNLGEADFDAVICGGTLGILLAASLQIRGWQVVVIERGKLQGRAQEWNISRQELQTFVELELLTSEELETAIASEYNPGRIAFHGGQEFWIKNVLNVGIDPIYLLEKLKQKFLQAGGKLLEHSAFQKAIIHSDGVAISYQHDGENQVERKLTSRLLIDAMGHGSPLVNQARQGEIPDGVCLVVGSCAQGYSDNETGDLIATTTGITNHCQYFWEAFPARDGRTTYLFTYVDVHPERISLEFFFQEYFRLLPEYQKINLDQLQWQRFLSGFFPAYKSSPLHFSWGRVLAVGDSAGSQSPVSFGGFGAMVRHLKRLTNAIGEALAGDYLAAEDLALLQPYQPNIGVTWLFQQTMGVKVGQTADPEQINRLMNAVFAVMDRQGQEVMEPFLQDVIQWSGLTQTLPRVNPLIVLPLLPQIGLPALMEWLGHYANLAGYSLTYPLAKNLLFTNPSFEQKRRLEAWYYGSGYDFHH” here?
Answer: The value was “not soluble”.

Question: For “ACRISPGQINQVRPKLPLLKILHAAGAQGEMFTVKEVMHYLGQYIMVKQLYDQQEQHMVYCGGDLLGELLGRQSFSVKDPSPLYDMLRKNLVTLATATTDA”, which “soluble on expression in E. coli” value is on record?
Answer: Its value is “soluble”.

Question: Which “soluble on expression in E. coli” value does the source give for “GPGSMLCRVHLRADPHSSSLHNVVHATNAMAAVNQLLGPERSVFVATEVQPQGVGHSCHGIQLPEDAIIAENVRTSMLVPKVRLHILGDAERGIPPVQQVVIWGYETCGCILQTADDLLTHGVRVAVLVDGCASRTKEVHDTAVLQISRWDGLMVTTVPSAVMQLTRSDARFVKPIIQIMKKFAADWCTTQPRPELRDRGGSGDGEKATAASDARAVPSALATATAADAILAANSACCRTEH” here?
Answer: Its value is “not soluble”.

Question: Which “soluble on expression in E. coli” value does the source give for “MIRSFADRDTELVWLREGAKRVDPRIHKVANRKLHLLDAATTLDALRVTPGNRLETLEGDRVGQYSIRVNDQWRICFRWNDSGPENVEIVDYH” here?
Answer: Its value is “not soluble”.

Question: With “MGSDKIHHHHHHMAFTHTVGQHRHVFADLRTLLAKASPARSGDYLAGIAAASEEERMAARMALAAVPLTQFLSEALVPYEDDEVTRLIVDSHDAVAFAEIASLTVGDFRNWLLLHETDSTTLATVARGITPEMAAAVSKLMRNQDLIAVARKCHVVTRFRSTVGLPGRLSVRLQPNHPTDDPKGIAASIIDGLMYGCGDATIGVNPVSDSLGAIVSLLRMIDDLRCRYDIPTQSCVLTHVTHTLRAMEQGAPVDLVFQSVAGSERANAAFGISLSLLAEAHDAAQALARGTVGDNVMYFETGQGSALSANAHHGVDQQTMEARAYAVARRFSPLLVNTVVGFIGPEYLYDGKQIIRAGLEDHFCGKLLGVPMGCDVCYTNHAEADQDDMDTLLTLFGVAGINFIMGVPGADDIMLNYQSTSFHDALYLREVLGLRPAPEFEAWLQRMGIADGSGRLLEPAERQPLLELAHTL” as the sequence, how does the “soluble on expression in E. coli” value read?
Answer: The value was “not soluble”.

Question: With “MPVINVKDDEDFRNQLSLAGLKSVIVDFTAVWCGPCKMIAPTFEALSNQYLGAVFLKVDVEICEKTSSENGVNSMPTFMVFQSGVRVEQMKGADAKALETMVKKYADNSAADSLVAGQMDLTPLVDKKQMECLNESDDTPLGRFLEGNCNLVSDCDEQLIISLPFNQPVKVHSILIKGVSDRAPKKVKVFINLPKTTDFDNATALEPTQMLEFDESSIQGHGQVVALKYVKFQNVQNIQFFIENNVGGGDVTELVKLTVFGTPLSALNMNEFKRVAGKAGDAAH” as the sequence, how does the “soluble on expression in E. coli” value read?
Answer: The value was “not soluble”.

Question: With “MNHNDVLRSLRYMLKVNDAKMAEIIGLSGLEVHPLVLATYLKKEEEEGFVRCPERVMAHFLDGLVIYRRGKDESRPQQPIELPVTNNLILKKLRVAFELKEDDLHAILKSVNFPVSKPELSALFRKAGHDNYRPCGDQLMRNFLKGLTLRVRG” as the sequence, how does the “soluble on expression in E. coli” value read?
Answer: Its value is “not soluble”.

Question: Which “soluble on expression in E. coli” value does the source give for “MGSSHHHHHHSSGLVPRGSHMNIGDTLNHSLLNHPLMLSGSTCKTLSDYTNQWLVLYFYPKDNTPGSSTEGLEFNLLLPQFEQINATVLGVSRDSVKSHDSFCAKQGFTFPLVSDSDAILCKAFDVIKEKTMYGRQVIGIERSTFLIGPTHRIVEAWRQVKVPGHAEEVLNKLKAHAEQ” here?
Answer: Its value is “soluble”.
